In the test the target is T1, Vps4(E233Q), the ATP-locked form of Vps4 (S. cerevisiae, UniProt P52917 1-437, E233Q).
T1 sequence (looked up): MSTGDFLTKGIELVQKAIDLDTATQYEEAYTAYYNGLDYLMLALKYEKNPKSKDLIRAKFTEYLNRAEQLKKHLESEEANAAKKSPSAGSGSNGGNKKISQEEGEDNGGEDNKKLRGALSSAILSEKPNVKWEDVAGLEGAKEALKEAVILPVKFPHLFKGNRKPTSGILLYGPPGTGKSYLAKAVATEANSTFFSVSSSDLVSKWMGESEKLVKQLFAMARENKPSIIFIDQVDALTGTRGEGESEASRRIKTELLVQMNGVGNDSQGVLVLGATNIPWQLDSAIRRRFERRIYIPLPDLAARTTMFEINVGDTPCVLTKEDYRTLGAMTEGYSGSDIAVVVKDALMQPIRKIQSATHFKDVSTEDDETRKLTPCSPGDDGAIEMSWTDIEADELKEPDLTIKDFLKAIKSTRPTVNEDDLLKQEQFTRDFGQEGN
Nature of the test: pull-down.

B1: GST-Did2(CT) (amino acids 113-204), the C-terminal half of Did2 (domain or fragment, S. cerevisiae, UniProt P69771 113-204, looked up)
chain: QQITMIMDKFEQQFEDLDTSVNVYEDMGVNSDAMLVDNDKVDELMSKVADENGMELKQSAKLDNVPEIKAKEVNVDDEKEDKLAQRLRALRG
For the molecule B1, the binding result is recorded as “binds”.

The values are drawn from article PMC3276697 (Traffic (Copenhagen, Denmark), 2012).
